US20210324061A1 (ARGENX BVBA, published 2021)

B1: 39B6-A IgG4 S228P (antibody, V domains shown)
VH: QVQLVQPGAEVRKPGASVKVSCKASGYRFTSYYIDWVRQAPGQGLEWMGRIDPEDAGTKYAQKFQGRVTMTADTSTSTVYVELSSLRSEDTAVYYCARNEWETVVVGDLMYEYEYWGQGTLVTVSS
VL: DIQMTQSPSSLSASVGDRVTITCQASQSISSYLAWYQQKPGQAPKILIYGASRLKTGVPSRFSGSGSGTSFTLTISSLEPEDAATYYCQQYASVPVTFGQGTKVEIKR
notes: 39B6 with G55A in HCDR2, in the human IgG4 S228P backbone; also called 39B6-ANE
B2: 39B6-AEE IgG4 S228P (antibody, V domains shown)
VH: QVQLVQPGAEVRKPGASVKVSCKASGYRFTSYYIDWVRQAPGQGLEWMGRIDPEDAGTKYAQKFQGRVTMTADTSTSTVYVELSSLRSEDTAVYYCAREEWETVVVGDLMYEYEYWGQGTLVTVSS
VL: DIQMTQSPSSLSASVGDRVTITCQASQSISSYLAWYQQKPGQAPKILIYGASRLKTGVPSRFSGSGSGTSFTLTISSLEPEDAATYYCQQYASVPVTFGQGTKVEIKR
B3: Fab 39A5 (Fab, V domains shown)
VH: QVQLVQPGAELRNPGASVKVSCKASGYRFTSYYIDWVRQAPGQGLEWMGRIDPEDGGTKYAQKFQGRVTFTRDTSTSTVYMELSSLRSEDTAVYYCARNEWETVVVGDLMYEYEYWGQGTLVT
VL: DIQMTQSPSSLSASLGDRVTITCQASQSISSYLAWYQQKPGQAPKLLIYGASRLKTGVPSRFSGSGSGTDFTLTISSLQPEDAATYYCQQYASVPVTFGQGTKVEIK
notes: Germlined Fab with human CH1 and Cκ (pCB13), tested as periplasmic extract
B4: Fab 38F2 (Fab, V domains shown)
VH: QVQLVQPGAELKKPGASVKVSCKASGYRFTSYYIDWVRQAPGQGLEWMGRIDPEDAGTKYAQKFQGRVTFTADTSTSTVYVELSSLRSEDTAVYYCARNEWETVVVGDLTYEYEYWGQGTLVTVSS
VL: DIQMTQSPSSLSASVGDRVTITCQASQSISSYLAWYQQKPGKAPNLLIYGASRLKTEVPSRFSGSGSGTDFTLISGLEPEDAGTYYCQQYASVPVTFGQGTKVEIK
notes: as for B3
B5: Fab 39B10 (Fab, V domains shown)
VH: EVQLVQSGAELKKPGASVKVSCKASGYRFTSYYIDWVRQAPGQGLEWMGRIDPEEGGTKYAQKFQGRVTMTADTSTSTAYMELSSLRSEDTAVYYCARNEWETVVVGDLMYEYEYWGQGTLVTVSS
VL: DIQMTQSPSSLSASLGDRVTITCQASQSISSYLAWYQQKPGQAPNILIYGASRLKTGVPSRFSGSGSGTDFTLTISGLEAEDFATYYCQQYASVPVTFGQGTKVEIK
notes: as for B3
B6: Fab 39B6 (Fab, V domains shown)
VH: QVQLVQPGAEVRKPGASVKVSCKASGYRFTSYYIDWVRQAPGQGLEWMGRIDPEDGGTKYAQKFQGRVTMTADTSTSTVYVELSSLRSEDTAVYYCARNEWETVVVGDLMYEYEYWGQGTLVTVSS
VL: DIQMTQSPSSLSASVGDRVTITCQASQSISSYLAWYQQKPGQAPKILIYGASRLKTGVPSRFSGSGSGTSFTLTISSLEPEDAATYYCQQYASVPVTFGQGTKVEIK
notes: as for B3
B7: Fab 39A12 (Fab, V domains shown)
VH: EVQLVQPGAEVKKPGASVKVSCKASGYRFTSYYIDWVRQAPGQGLEWMGRIDPEEGGTKYAQKFQGRVTFTADTSTSTVYVELSSLRSEDTAVYYCARNEWETVVVGDLTYEYEYWGQGTLVTVSS
VL: DIQMTQSPSSLSASVGDRVTITCQASQSISSYLAWYQQKPGQAPKILIYGASRLKTGVPSRFSGSGSGTDFTLTISSLQAEDFATYYCQQYASVPVTFGQGTKVEIK
notes: Germlined Fab from the phage library with human CH1 and Cκ (pCB13), tested as periplasmic extract
B8: 39A5 human IgG1 (antibody, V domains shown)
VH: QVQLVQPGAELRNPGASVKVSCKASGYRFTSYYIDWVRQAPGQGLEWMGRIDPEDGGTKYAQKFQGRVTFTRDTSTSTVYMELSSLRSEDTAVYYCARNEWETVVVGDLMYEYEYWGQGTLVT
VL: DIQMTQSPSSLSASLGDRVTITCQASQSISSYLAWYQQKPGQAPKLLIYGASRLKTGVPSRFSGSGSGTDFTLTISSLQPEDAATYYCQQYASVPVTFGQGTKVEIK
notes: Full human IgG1, made in HEK 293E cells
B9: 39B10 human IgG1 (antibody, V domains shown)
VH: EVQLVQSGAELKKPGASVKVSCKASGYRFTSYYIDWVRQAPGQGLEWMGRIDPEEGGTKYAQKFQGRVTMTADTSTSTAYMELSSLRSEDTAVYYCARNEWETVVVGDLMYEYEYWGQGTLVTVSS
VL: DIQMTQSPSSLSASLGDRVTITCQASQSISSYLAWYQQKPGQAPNILIYGASRLKTGVPSRFSGSGSGTDFTLTISGLEAEDFATYYCQQYASVPVTFGQGTKVEIK
notes: as for B8
B10: 39B6 human IgG1 (antibody, V domains shown)
VH: QVQLVQPGAEVRKPGASVKVSCKASGYRFTSYYIDWVRQAPGQGLEWMGRIDPEDGGTKYAQKFQGRVTMTADTSTSTVYVELSSLRSEDTAVYYCARNEWETVVVGDLMYEYEYWGQGTLVTVSS
VL: DIQMTQSPSSLSASVGDRVTITCQASQSISSYLAWYQQKPGQAPKILIYGASRLKTGVPSRFSGSGSGTSFTLTISSLEPEDAATYYCQQYASVPVTFGQGTKVEIK
notes: as for B8
B11: 38F2 human IgG1 (antibody, V domains shown)
VH: QVQLVQPGAELKKPGASVKVSCKASGYRFTSYYIDWVRQAPGQGLEWMGRIDPEDAGTKYAQKFQGRVTFTADTSTSTVYVELSSLRSEDTAVYYCARNEWETVVVGDLTYEYEYWGQGTLVTVSS
VL: DIQMTQSPSSLSASVGDRVTITCQASQSISSYLAWYQQKPGKAPNLLIYGASRLKTEVPSRFSGSGSGTDFTLISGLEPEDAGTYYCQQYASVPVTFGQGTKVEIK
notes: as for B8
B12: 39A12 human IgG1 (antibody, V domains shown)
VH: EVQLVQPGAEVKKPGASVKVSCKASGYRFTSYYIDWVRQAPGQGLEWMGRIDPEEGGTKYAQKFQGRVTFTADTSTSTVYVELSSLRSEDTAVYYCARNEWETVVVGDLTYEYEYWGQGTLVTVSS
VL: DIQMTQSPSSLSASVGDRVTITCQASQSISSYLAWYQQKPGQAPKILIYGASRLKTGVPSRFSGSGSGTDFTLTISSLQAEDFATYYCQQYASVPVTFGQGTKVEIK
notes: Full human IgG1, made in HEK 293E cells; also called 39A12_T

The binders below were run against T1, human GARP-TGF-β1 complex (recombinant complex of human GARP and latent human TGF-β1) (human, UniProt Q14392 20-627; P01137 30-278; P01137 279-390) (assay: SPR Biacore T200, CM5 chip coated with the antibody at 200 RU, complex in solution).
T1 construct: also called huGARP-TGF-β1; hGARP-TGF-β1
T1 sequence (Q14392 20-627 limits assumed, chain 1 of 3): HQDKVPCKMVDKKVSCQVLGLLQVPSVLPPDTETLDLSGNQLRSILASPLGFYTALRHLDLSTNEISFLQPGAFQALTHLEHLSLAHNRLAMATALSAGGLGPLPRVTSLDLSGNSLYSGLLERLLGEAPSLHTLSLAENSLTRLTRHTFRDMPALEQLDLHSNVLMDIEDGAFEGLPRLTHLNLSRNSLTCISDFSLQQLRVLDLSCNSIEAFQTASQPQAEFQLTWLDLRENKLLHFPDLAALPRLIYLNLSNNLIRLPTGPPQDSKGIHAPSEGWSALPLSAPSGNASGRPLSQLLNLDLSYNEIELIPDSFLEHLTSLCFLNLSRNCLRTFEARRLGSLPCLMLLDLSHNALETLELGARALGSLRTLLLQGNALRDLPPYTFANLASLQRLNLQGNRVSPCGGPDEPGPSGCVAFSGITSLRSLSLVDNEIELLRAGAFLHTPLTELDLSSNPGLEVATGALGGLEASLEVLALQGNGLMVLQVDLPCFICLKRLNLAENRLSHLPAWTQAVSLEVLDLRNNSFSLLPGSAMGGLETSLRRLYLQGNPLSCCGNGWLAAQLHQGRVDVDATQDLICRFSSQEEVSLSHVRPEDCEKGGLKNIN
T1 sequence (P01137 30-278 limits assumed, chain 2 of 3): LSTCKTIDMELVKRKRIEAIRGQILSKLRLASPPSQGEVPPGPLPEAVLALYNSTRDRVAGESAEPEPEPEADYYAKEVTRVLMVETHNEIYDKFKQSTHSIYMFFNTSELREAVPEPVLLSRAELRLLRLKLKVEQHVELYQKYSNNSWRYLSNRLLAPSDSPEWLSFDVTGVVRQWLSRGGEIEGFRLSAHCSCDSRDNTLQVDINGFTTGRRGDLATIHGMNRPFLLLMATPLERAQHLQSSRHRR
T1 sequence (P01137 279-390 limits assumed, chain 3 of 3): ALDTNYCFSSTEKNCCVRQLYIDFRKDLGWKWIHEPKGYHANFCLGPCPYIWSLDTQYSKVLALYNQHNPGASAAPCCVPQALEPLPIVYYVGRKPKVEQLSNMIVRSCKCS
Procedure: (§1) The affinity of all antibodies (including 39B6-A) for GARP-TGF-β1 was tested by BiacoreT200 using a CM5 chip coated with GARP-TGF-β1 complex at 150RU (Table 17) or coated with the antibodies at 200RU (Table 17)
For B1, the “Fold-difference (KD vs 39B6-A)” value was 1 fold and the Kd was 1330 pM. For B2, the “Fold-difference (KD vs 39B6-A)” value was 76.7 fold and the Kd was 102000 pM.

What follows are binders tested against T1, human GARP-TGF-β1 complex (recombinant …) (assay: SPR, Fab in periplasmic extract, off-rate on human GARP-TGF-β1 complex).
Procedure: Masterplates were picked from selection round 2, 3, 4, 5 and 6 (48 clones for each round). Periplasmic extracts were prepared and off-rates were determined by SPR. All clones were DNA-sequenced and amino acid sequences were deduced thereof. The off-rates of these clones were measured as periplasmic extracts on SPR, and compared to the off-rate of Fab 17H5.
Work on B3 yielded a koff of 0.00019 s⁻¹. Binder B4 has a koff of 0.000408 s⁻¹. B5 gave a koff of 0.000236 s⁻¹. For B6, the koff was 0.000105 s⁻¹. B7 gave a koff of 0.000606 s⁻¹.

These binders were tested against T1, human GARP-TGF-β1 complex (recombinant …) (assay: SPR, IgG1 on human GARP-TGF-β1 complex).
Description: The five germlined clones reformatted to human IgG1 were produced by transient transfection in HEK 293E cells.
For B8, the Kd was 298 pM and the “fold difference (KD vs 17H5)” value was 3 fold. For B9, the Kd was 262 pM and the “fold difference (KD vs 17H5)” value was 2.6 fold. With B10 the Kd was 167 pM and the “fold difference (KD vs 17H5)” value was 1.7 fold. With B11 the Kd was 480 pM and the “fold difference (KD vs 17H5)” value was 4.8 fold. In the case of B12, the Kd is reported as 505 pM and the “fold difference (KD vs 17H5)” value is reported as 5.1 fold.

Each binder was assayed against T1, human GARP-TGF-β1 complex (recombinant …) (assay: SPR Biacore T200, CM5 chip coated with GARP-TGF-β1 complex at 150 RU).
Procedure: as §1
In the case of B1, the “Fold-difference (KD vs 39B6-A)” value is reported as 1 fold and the Kd is reported as 991 pM. B2 was tested, and the “Fold-difference (KD vs 39B6-A)” value was 5.8 fold and the Kd was 5790 pM.
